PMC6728052 (PLoS Computational Biology, 2019)
Substitutions are numbered along the chain they refer to. Blank lines part the entries; values can stand above or below the binder they belong to.

Key:
[1] = biological target: human Vascular-Endothelial Growth Factor (VEGF) (Homo sapiens, UniProt P15692-4); experiment: SPR
[2] = biological target: hen egg-white lysozyme (Gallus gallus, UniProt P00698); experiment: SPR
Chain of hen egg-white lysozyme (P00698 19-147): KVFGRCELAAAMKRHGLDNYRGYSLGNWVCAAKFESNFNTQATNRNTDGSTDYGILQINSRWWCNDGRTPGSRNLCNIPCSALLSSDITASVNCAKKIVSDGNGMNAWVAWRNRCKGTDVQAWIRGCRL

kon [1]: 327000 M⁻¹ s⁻¹
B1: G6^des1, Fab (Fab, V domains shown)
VH: EVQLVESGGGLVQPGGSLRLSCAASGFTISDYWIHWVRQAPGKGLEWVAGITPAGGYTHYADSVKGRFTISADTSKNTAYLQMNSLRAEDTAVYFCARFVFFLPYAMDYWGQGTLVTVSS
VL: DIQMTQSPSSLSASVGDRVTITCRASQDVSTAVAWYQQKPGKPPKLLIFSASFLFSGVPSRFSGSGSGTDFTLTISSLQPEDFATYYCLQSYTVTPTFGPGTKVEIK

Kd [1]: 0.06 nM | koff [1]: 3.2e-05 s⁻¹ | kon [1]: 530000 M⁻¹ s⁻¹
B2: G6^des13, Fab (Fab, V domains shown)
VH: B1 VH
VL: B1 VL with F49Y, F55Y, V94D, P100Q

Kd [2]: 15 nM | koff [2]: 0.00079 s⁻¹ | kon [2]: 53000 M⁻¹ s⁻¹
B3: D44.1^des, Fab (Fab, V domains shown)
VH: QVQLQESGAEVMKPGASVKISCKATGYTFSTYWIEWMKQRPGGGLEYIGEILPGSGSTYYNEKFKGKATFTADTSSNTAYMQLSSLTSEDSAVYYCARGDGYYKYWGQGTTLTVSS
VL: DIELTQSPATLSVTPGDSVSLSCRASQSISNNLHWYQQKSHEPPRLLIKYVSQSVSGIPSRFSGSGSGTDFTLSINSVETEDFGMYFCGQSNSWPRTFGGGTKLEIK
